In patent publication US20170137520A1 (Merck Sharp & Dohme, published 2017):

T1: Human CTLA-4-Fc (human, UniProt P16410 37-162, limits assumed)
T1 construct: also called human CTLA4-hFc; CTLA-4-Fc fusion molecule from human; not shown: human Fc (hFc)
T1 sequence: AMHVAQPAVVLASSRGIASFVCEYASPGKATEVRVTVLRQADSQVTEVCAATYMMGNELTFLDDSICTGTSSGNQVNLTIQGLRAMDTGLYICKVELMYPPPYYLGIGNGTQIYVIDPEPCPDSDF

T2: Cynomolgus CTLA-4-Fc (cynomolgus monkey, UniProt G7PL88 37-162)
T2 construct: also called cynomolgus monkey CTLA4-hFc; not shown: human Fc (hFc)
T2 sequence: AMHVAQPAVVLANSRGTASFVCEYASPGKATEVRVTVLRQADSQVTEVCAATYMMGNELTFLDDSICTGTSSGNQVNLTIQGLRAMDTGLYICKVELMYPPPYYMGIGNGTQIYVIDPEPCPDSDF

T3: human CTLA-4 expressed on cell surface (hCTLA4-overexpressing CHO-K1 cells) (human, UniProt P16410 36-223)
T3 construct: The construct expressed in the cells is not described further; also called huCTLA-4+ CHO-K cells; CTLA-4+ CHO-K1 cells
T3 sequence: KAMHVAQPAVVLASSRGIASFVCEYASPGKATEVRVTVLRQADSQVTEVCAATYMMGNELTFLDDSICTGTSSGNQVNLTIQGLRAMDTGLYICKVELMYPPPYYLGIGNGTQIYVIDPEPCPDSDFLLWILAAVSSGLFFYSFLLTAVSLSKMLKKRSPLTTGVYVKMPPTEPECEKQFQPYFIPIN


How the values were obtained:
Human CTLA-4-Fc = biological target: T1, Human CTLA-4-Fc; assay: kinetic binding analysis on CTLA4-hFc; method not stated
Procedure: (§1) On-rate, off-rate and affinity were determined using human and cynomolgus monkey CTLA4-hFc (Table below).

Cynomolgus CTLA-4-Fc = biological target: T2, Cynomolgus CTLA-4-Fc; assay: as above
Procedure: as §1

[1] = biological target: T3, human CTLA-4 expressed on cell surface …; assay: competition flow cytometry (cFACS) on CHO-K1 hCTLA4 cells against a fixed concentration (EC30) of hCD80-hFc; MedianFI (PE)
[2] = biological target: T3, human CTLA-4 expressed on cell surface …; assay: competition flow cytometry (cFACS) on CHO-K1 hCTLA4 cells against a fixed concentration (EC30) of hCD86-hFc; MedianFI (PE)
[3] = biological target: T3, human CTLA-4 expressed on cell surface …; assay: competition flow cytometry (cFACS) on CHO-K1 hCTLA4 cells against a fixed concentration (EC30) of hCD80-hFc; bound ligand detected via its human IgG Fc; MedianFI (PE)
Source text: (§2) F023700906, a building block of F023700925, as well as F023701051, F023701054 and F023701061 blocked binding of human CTLA-4 to its ligands CD80 and CD86. Flow cytometry analysis of discovery batches of N73X variants (filled squares, filled triangles, filled triangles upside-down) of Nb F023700906 (filled circles) with fixed concentrations (EC30) of (A) hCD80-hFc or (B) hCD86-hFc on hCTLA4-overexpressing CHO-K1 cells. The ligands were detected via the human IgG Fc fusion protein. The flow cytometry data generated in this experiment are in FIG. 10 (A-B).

[4] = biological target: T3, human CTLA-4 expressed on cell surface …; assay: competition flow cytometry (cFACS) on CHO-K1 hCTLA4 cells against a fixed concentration (EC30) of hCD86-hFc; bound ligand detected via its human IgG Fc; MedianFI (PE)
Source text: as §2

Binder	Kd (Human CTLA-4-Fc)	koff (Human CTLA-4-Fc)	kon (Human CTLA-4-Fc)	Kd (Cynomolgus CTLA-4-Fc)	koff (Cynomolgus CTLA-4-Fc)	kon (Cynomolgus CTLA-4-Fc)	IC50 (read off the curve) [1]	IC50 (read off the curve) [2]	IC50 (read off the curve) [3]	IC50 (read off the curve) [4]
F023700906 Nanobody, CTLA4 binder 11F01 (L11V,A14P,Q45R,A74S,K83R,V89L,M96P,Q108L)-FLAG3-HIS6 (VHH, also called F02370906; Nb F023700906) VHH: EVQLVESGGGVVQPGGSLRLSCAASGGTFSFYGMGWFRQAPGKEREFVADIRTSAGRTYYADSVKGRFTISRDNSKNTVYLQMNSLRPEDTALYYCAAEPSGISGWDYWGQGTLVTVSS	1.2 nM	0.0059 s⁻¹	4.8e+06 M⁻¹ s⁻¹	1.2 nM	0.0057 s⁻¹	4.7e+06 M⁻¹ s⁻¹	~10 nM	~2 nM	~10 nM	~2 nM
F023701051 [11F01 (L11V,A14P,Q45R,N73Q,A74S,K83R,V89L,M96P,Q108L)-FLAG3-HIS6] (VHH, name in Kabat numbering, N73 is Kabat numbering; also called F02371051) VHH: EVQLVESGGGVVQPGGSLRLSCAASGGTFSFYGMGWFRQAPGKEREFVADIRTSAGRTYYADSVKGRFTISRDQSKNTVYLQMNSLRPEDTALYYCAAEPSGISGWDYWGQGTLVTVSS							~10 nM	~2 nM	~10 nM	~2 nM

Results, then the binder that gave them:

Kd (Human CTLA-4-Fc)	koff (Human CTLA-4-Fc)	kon (Human CTLA-4-Fc)	Kd (Cynomolgus CTLA-4-Fc)	koff (Cynomolgus CTLA-4-Fc)	kon (Cynomolgus CTLA-4-Fc)	IC50 (read off the curve) [1]	IC50 (read off the curve) [2]	IC50 (read off the curve) [3]	IC50 (read off the curve) [4]	Binder
						~10 nM	~2 nM	~10 nM	~2 nM	F023701061 [11F01 (L11V,A14P,Q45R,N73Y,A74S,K83R,V89L,M96P,Q108L)-FLAG3-HIS6] (VHH, name in Kabat numbering, N73 is Kabat numbering) VHH: EVQLVESGGGVVQPGGSLRLSCAASGGTFSFYGMGWFRQAPGKEREFVADIRTSAGRTYYADSVKGRFTISRDYSKNTVYLQMNSLRPEDTALYYCAAEPSGISGWDYWGQGTLVTVSS
						~10 nM	~2 nM	~10 nM	~2 nM	F023701054 [11F01 (L11V,A14P,Q45R,N73T,A74S,K83R,V89L,M96P,Q108L)-FLAG3-HIS6] (VHH, name in Kabat numbering, N73 is Kabat numbering) VHH: EVQLVESGGGVVQPGGSLRLSCAASGGTFSFYGMGWFRQAPGKEREFVADIRTSAGRTYYADSVKGRFTISRDTSKNTVYLQMNSLRPEDTALYYCAAEPSGISGWDYWGQGTLVTVSS
